Test [1] concerns the target T1, AMHRII on the COV434 AMHRII transfected cell line (~80,000 receptors) (human, UniProt Q16671 18-573).
T1 sequence: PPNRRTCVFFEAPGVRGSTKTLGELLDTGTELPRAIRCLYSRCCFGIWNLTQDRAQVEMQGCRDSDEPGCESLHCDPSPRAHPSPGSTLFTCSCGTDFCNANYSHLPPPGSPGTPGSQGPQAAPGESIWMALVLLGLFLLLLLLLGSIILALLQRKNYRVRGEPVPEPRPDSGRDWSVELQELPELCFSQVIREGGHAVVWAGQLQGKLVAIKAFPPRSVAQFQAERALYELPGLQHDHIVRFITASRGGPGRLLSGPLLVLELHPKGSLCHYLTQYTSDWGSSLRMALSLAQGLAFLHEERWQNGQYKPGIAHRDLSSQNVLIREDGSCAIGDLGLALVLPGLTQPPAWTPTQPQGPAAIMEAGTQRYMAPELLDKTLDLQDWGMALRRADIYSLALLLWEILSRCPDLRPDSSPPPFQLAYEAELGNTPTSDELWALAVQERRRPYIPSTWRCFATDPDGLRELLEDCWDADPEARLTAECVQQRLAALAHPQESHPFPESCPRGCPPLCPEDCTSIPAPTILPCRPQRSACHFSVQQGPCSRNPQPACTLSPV
In words: cell-based or functional assay.

Test [2] addresses T2, anti-Müllerian hormone type II receptor (AMHRII), immobilised on the SPR chip (human, UniProt Q16671 18-149, limits assumed).
T2 construct: also called AMHR2
In words: SPR (Bia3000, 25°C), AMHRII covalently immobilised on a CM5 chip, ADC injected, Langmuir 1:1 fit (Example 3). On the procedure:
All kinetic measurements are performed on a Bia3000 apparatus at 25° C. in PBS pH 7.4 containing 0.005% of P20 surfactant at 50 μl/min on control and AMHRII Flowcells. The antibody is injected during 180 s at concentrations given in the appendix. After a dissociation step of 400 s in running buffer, sensor surfaces are regenerated using one pulse of 15 μl of Gly-HCL pH1.7. All the sensorgrams are corrected by subtracting the low signal from the control reference surface and blank buffer. Kinetic parameters are evaluated from the sensorgrams using a Langmuir 1:1 model on the BiaEvaluation software 4.2.
For kinetic studies all the mAb and ADC are injected at various concentrations (0.7 nM-100 nM). The sensorgrams are evaluated by L1:1 fitting model (BiaEvaluation 4.2 software) starting of minimum 3 (n=3) separated experiments or fits to obtain average values for ka, kd and KD with standard deviation (SD). Several experiments are performed on the same AMHRII-coated surface after verification of the responses stability to 10 nM injection of 3C23K before and after the experiment series with each mAb/ADC. All results are obtained from two AMHRII-coated Flowcells.

The target in a further test is T3, FcRn.
T3 construct: also called neonatal Fc receptor
The test can be described thus: SPR ('Binding SPR (KD)' row FcRn); set-up not given.

From patent US20230001006A1 (GAMAMABS PHARMA, published 2023) come the findings set out here.

B1: GM104 (antibody, human IgG1, kappa)
heavy: QVRLVQSGAEVKKPGASVKVSCKASGYTFTSYHIHWVRQAPGQRLEWMGWIYPGDDSTKYSQKFQGRVTITRDTSASTAYMELSSLRSEDTAVYYCTRGDRFAYWGQGTLVTVSSASTKGPSVFPLAPSSKSTSGGTAALGCLVKDYFPEPVTVSWNSGALTSGVHTFPAVLQSSGLYSLSSVVTVPSSSLGTQTYICNVNHKPSNTKVDKRVEPKSCDKTHTCPPCPAPELLGGPSCVFLFPPKPKDTLMISRTPEVTCVVVDVSHEDPEVKFNWYVDGVEVHNAKTKPREEQYNSTYRVVSVLTVLHQDWLNGKEYKCKVSNKALPAPIEKTISKAKGQPREPQVYTLPPSREEMTKNQVSLTCLVKGFYPSDIAVEWESNGQPENNYKTTPPVLDSDGSFFLYSKLTVDKSRWQQGNVFSCSVMHEALHNHYTQKSLSLSPGK
light: DIQMTQSPSTLSASVGDRVTITCRASSSVRYIAWYQQKPGKAPKLLTYPTSSLESGVPSRFSGSGSGTEFTLTISSLQPDDFATYYCLQWSSYPWTFGGGTKVEIKRTVAAPSVFIFPPSDEQLKSGTASVVCLLNNFYPREAKVQWKVDNALQSGNSQESVTEQDSKDSTYSLSSTLTLSKADYEKHKVYACEVTHQGLSSPVTKSFNRGEC
notes: also called GM104 ADC; ADC according to the invention
The Kd is the equilibrium constant for the complex coming apart. Low readings indicate tighter binding, high ones weaker binding. As to B1, the “IC50, proliferation/viability of COV434 AMHRII transfected cells after 72 h (CellTiter Blue)” value in test [1] amounted to 0.22 nM. In addition, the figures for the Kd (in test [2]; in the test with FcRn) were 1.7 nM and 22 nM, respectively.
